Reference: patent US20240376224A1 (University of California, published 2024)

Assays:
[1] = molecular target: T1, soluble CUB1 (NTF) used as competitor (human, UniProt Q9H5V8 30-367, limits assumed); test: flow cytometry competition: CUB1-His (NTF) titrated against 100, 50 or 0 nM IgG CL03 on cleaved CDCP1 positive cells
T1 sequence: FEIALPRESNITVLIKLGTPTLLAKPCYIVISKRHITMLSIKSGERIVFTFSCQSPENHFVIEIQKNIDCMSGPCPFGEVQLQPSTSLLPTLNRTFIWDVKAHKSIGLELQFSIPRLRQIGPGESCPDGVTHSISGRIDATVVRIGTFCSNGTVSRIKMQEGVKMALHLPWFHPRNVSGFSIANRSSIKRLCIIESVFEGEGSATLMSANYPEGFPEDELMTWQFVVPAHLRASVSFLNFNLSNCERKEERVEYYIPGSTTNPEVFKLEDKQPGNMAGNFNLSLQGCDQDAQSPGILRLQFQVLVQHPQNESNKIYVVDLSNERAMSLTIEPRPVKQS
Protocol: To further evaluate the recognition of cleaved CDCP1 on cancer cells by CL03, a competition assay was performed to evaluate whether soluble CUB1 (NTF) could compete with the binding of CL03 on cleaved CDCP1 positive cells. […] Primary Ab (CL03 IgG) and different concentrations of CUB1 (NTF) were added to cells for 30 minutes at 4° C. Bound Abs were detected with addition of AlexaFluor-488 conjugated Goat anti-human IgG, F(ab′)2 fragment specific (Jackson ImmunoResearch: 1:1000). Cells were washed 3× with PBS+3% BSA and fluorescence was quantified using a CytoFLEX (Beckman Coulter) flow cytometer. All flow cytometry data analysis was performed using FlowJo software and Prism software (GraphPad).

[2] = molecular target: T2, mouse c-CDCP1 (recombinant cleaved mouse CDCP1) (mouse, UniProt Q5U462 30-368; Q5U462 369-666, limits assumed); test: BLI (Octet), mouse c-CDCP1-Fc on the sensor, IgG CL03 as analyte
T2 construct: Mouse antigens made were c-CDCP1-Fc (Cut 1) and (Cut 2); also called mouse cleaved CDCP1; cleaved mCDCP1
T2 sequence 1: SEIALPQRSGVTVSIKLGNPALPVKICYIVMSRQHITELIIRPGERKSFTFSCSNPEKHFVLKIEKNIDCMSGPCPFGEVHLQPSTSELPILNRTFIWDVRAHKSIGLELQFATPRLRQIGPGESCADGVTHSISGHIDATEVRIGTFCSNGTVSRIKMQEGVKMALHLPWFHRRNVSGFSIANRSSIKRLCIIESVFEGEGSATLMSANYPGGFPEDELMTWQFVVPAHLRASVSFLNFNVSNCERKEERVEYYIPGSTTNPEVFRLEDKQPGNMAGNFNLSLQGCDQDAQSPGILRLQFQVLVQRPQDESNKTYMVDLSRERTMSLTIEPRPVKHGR
T2 sequence 2: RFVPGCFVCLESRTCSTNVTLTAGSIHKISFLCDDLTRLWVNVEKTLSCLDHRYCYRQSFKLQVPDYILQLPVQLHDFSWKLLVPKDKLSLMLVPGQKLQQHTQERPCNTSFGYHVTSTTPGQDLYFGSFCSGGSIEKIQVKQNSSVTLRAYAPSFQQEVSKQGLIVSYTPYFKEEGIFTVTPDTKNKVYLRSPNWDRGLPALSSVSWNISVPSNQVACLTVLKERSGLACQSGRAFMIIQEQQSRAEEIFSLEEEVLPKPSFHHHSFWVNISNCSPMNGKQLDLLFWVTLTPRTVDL

c-CDCP1-Fc (Cut 1) = molecular target: T3, c-CDCP1-Fc (Cut 1) (human, UniProt Q9H5V8 30-365; Q9H5V8 366-667); test: BLI (Octet), table of in vitro binding affinities
T3 construct: Co-transfection of NTF and CTF-Fc plasmids; not shown: Fc domain
T3 sequence 1: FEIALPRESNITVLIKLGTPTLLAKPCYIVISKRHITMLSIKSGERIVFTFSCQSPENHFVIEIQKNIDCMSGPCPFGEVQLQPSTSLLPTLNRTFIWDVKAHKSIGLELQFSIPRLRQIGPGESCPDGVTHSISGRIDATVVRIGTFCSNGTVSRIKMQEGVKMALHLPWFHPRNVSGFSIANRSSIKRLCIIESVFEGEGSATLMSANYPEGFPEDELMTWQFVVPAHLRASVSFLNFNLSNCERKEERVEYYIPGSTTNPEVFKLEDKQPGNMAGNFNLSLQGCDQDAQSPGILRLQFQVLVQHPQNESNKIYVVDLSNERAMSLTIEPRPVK
T3 sequence 2: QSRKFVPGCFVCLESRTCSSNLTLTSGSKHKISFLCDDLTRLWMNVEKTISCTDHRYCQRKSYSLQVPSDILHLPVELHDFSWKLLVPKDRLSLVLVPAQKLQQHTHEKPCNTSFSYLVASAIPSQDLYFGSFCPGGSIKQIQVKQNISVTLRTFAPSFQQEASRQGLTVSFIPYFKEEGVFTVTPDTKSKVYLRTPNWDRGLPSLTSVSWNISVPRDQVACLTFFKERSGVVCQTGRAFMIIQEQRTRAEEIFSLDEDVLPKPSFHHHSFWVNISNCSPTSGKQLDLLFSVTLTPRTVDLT
Protocol: BLI experiments were performed using an Octet RED384 instrument (ForteBio). Biotinylated proteins were immobilized on a streptavidin (SA) biosensor and His-tagged proteins were immobilized on a Ni-NTA biosensor. Different concentrations of analyte in PBS pH 7.4+0.05% Tween-20+0.2% BSA (PBSTB) were used as analyte. Affinities (KDS) were calculated from a global fit (1:1) of the data using the Octet RED384 software.

binding result [1]: no binding (tested: about 800 nM)
binding result [2]: no binding (tested: not printed)
Kd (c-CDCP1-Fc (Cut 1)): 840 pM
koff (c-CDCP1-Fc (Cut 1)): 0.000535 s⁻¹
kon (c-CDCP1-Fc (Cut 1)): 640000 M⁻¹ s⁻¹
B1: CL03 IgG (antibody, V domains shown)
VH: EVQLVESGGGLVQPGGSLRLSCAASGFNFSSYSIHWVRQAPGKGLEWVASIYPYSGSTYYADSVKGRFTISADTSKNTAYLQMNSLRAEDTAVYYCARQSHSYYSHTWWVSYGMDYWGQGTLVTVSS
VL: DIQMTQSPSSLSASVGDRVTITCRASQSVSSAVAWYQQKPGKAPKLLIYSASSLYSGVPSRFSGSRSGTDFTLTISSLQPEDFATYYCQQSGQRPITFGQGTKVEIKR
notes: also called IgG CL03
